These results are taken from US7749976B2, “Isolated PTPMT1 protein which mediates insulin production and uses thereof” (The Regents of the University of California, priority 2005, dated 2010).

Marks after values point to notes of the source that are not given here.

The target of one data set is T1, PLIP (Mus musculus, UniProt Q66GT5).
T1 construct: ligating a PCR product encoding full-length PLIP; made in house; host or cells: Escherichia coli BL21 (DE3) CodonPlus RIL
T1 sequence (Q66GT5 32-193): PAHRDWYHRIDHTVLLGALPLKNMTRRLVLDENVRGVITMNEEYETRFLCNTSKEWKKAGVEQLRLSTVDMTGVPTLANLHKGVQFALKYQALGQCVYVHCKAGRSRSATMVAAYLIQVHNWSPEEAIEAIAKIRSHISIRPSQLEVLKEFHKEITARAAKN
Kind of data set: Phosphatase activity of various PTPs (malachite green / radiolabeled protein substrates). It counts as biochemical, murine. Particulars: for Phosphatase activity, PLIP: mole of phosphate released/min/mol of enzyme, pH 5.5, triplicate, this study. How it is done:
Recombinant murine PLIP was expressed as a fusion protein with N-terminal GST and 6-His tags in Escherichia coli BL21 (DE3) CodonPlus RIL cells (Stratagene). The expression construct was assembled by ligating a PCR product encoding full-length PLIP into the 5′-EcoR1 and 3′-Xho1 sites of a modified pET41 vector (pSJ6), kindly provided by Zhaohui Xu (University of Michigan). […] Cultures were then chilled on ice for 20 min, supplied with fresh antibiotics, induced with IPTG to a final concentration of 0.4 mM, and allowed to grow overnight @ 25° C., as previously described (Taylor and Dixon, 2003). All subsequent steps were performed @ 4° C. The cultures were pelleted by spinning @ 6000 rpm for 10 min in a Sorvall GSA rotor, resuspended in 30 ml of buffer (20 mM Imidazole, 50 mM Tris pH 7.4, 300 mM NaCl) with Complete protease inhibitors (Roche), and lysed via French Press. Insoluble material was removed by centrifugation @ 50,000 rpm for 30 min. The fusion protein was purified from the soluble supernatant first over Ni^2+ agarose beads, and then by successive separation on Superdex 75 and 200 gel filtration columns (Amersham). The resulting protein was concentrated, flash frozen in liquid nitrogen, and stored @−80° C. in 25% glycerol, 2 mM EDTA, and 2 mM DTT until use.
Di-C8 phosphoinosites (Echelon) and Dioleoyl-phosphatidylserine (Sigma) were dried together in a Speed Vac and resuspended via sonication in 18 μl assay buffer (100 mM sodium acetate, 50 mM bis-Tris, 50 mM Tris (pH 5.5), 10 mM DTT) to final concentrations of 50 μM and 500 μM, respectively. After prewarming at 37° C. for 5 min, reactions were initiated by the addition of 20 to 2000 ng of GST-PLIP diluted in assay buffer containing 1.0 mg/ml gelatin. Reactions were quenched after 5-30 min by the addition of 20 μl 0.1 M N-ethylmaleimide, and spun at 18,000×g for 10 min to sediment the lipid aggregates. […] Samples were allowed to sit for 40 minutes for color development before measuring absorbance at 620 nm. Inorganic phosphate release was quantitated by comparison to a standard curve of KH2PO4 in dH2O. […]

The next data set concerns the target T2, TC-PTP (Homo sapiens, UniProt P17706).
T2 sequence (P17706 1-415): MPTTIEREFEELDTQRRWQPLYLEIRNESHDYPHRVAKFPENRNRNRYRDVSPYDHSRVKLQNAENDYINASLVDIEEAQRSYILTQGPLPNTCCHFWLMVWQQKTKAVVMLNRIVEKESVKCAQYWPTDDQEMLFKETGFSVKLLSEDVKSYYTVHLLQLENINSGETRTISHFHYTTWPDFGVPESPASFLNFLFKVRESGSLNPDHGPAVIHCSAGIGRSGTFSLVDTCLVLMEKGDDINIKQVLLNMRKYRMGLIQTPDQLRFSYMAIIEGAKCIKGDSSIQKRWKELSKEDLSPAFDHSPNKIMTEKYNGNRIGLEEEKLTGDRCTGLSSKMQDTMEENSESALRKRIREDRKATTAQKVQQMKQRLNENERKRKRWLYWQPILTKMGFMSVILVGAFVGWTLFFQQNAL
Described as above. The class given is biochemical. The conditions noted are these: mole of phosphate released/min/mol of enzyme; triplicate; this study. The method, then:
(§1) Di-C8 phosphoinosites (Echelon) and Dioleoyl-phosphatidylserine (Sigma) were dried together in a Speed Vac and resuspended via sonication in 18 μl assay buffer (100 mM sodium acetate, 50 mM bis-Tris, 50 mM Tris (pH 5.5), 10 mM DTT) to final concentrations of 50 μM and 500 μM, respectively. After prewarming at 37° C. for 5 min, reactions were initiated by the addition of 20 to 2000 ng of GST-PLIP diluted in assay buffer containing 1.0 mg/ml gelatin. Reactions were quenched after 5-30 min by the addition of 20 μl 0.1 M N-ethylmaleimide, and spun at 18,000×g for 10 min to sediment the lipid aggregates. Twenty-five microliters of the supernatant was added to 50 μl of malachite green reagent and vortexed. Samples were allowed to sit for 40 minutes for color development before measuring absorbance at 620 nm. Inorganic phosphate release was quantitated by comparison to a standard curve of KH2PO4 in dH2O.
(§2) Assays using radiolabeled protein substrates or pNPP were carried in assay buffer containing 50 mM sodium acetate, 25 mM bis-Tris, 25 mM Tris, and 2 mM DTT at pH 5.5 (GST-PLIP), 6.0 (VHR), or 7.0 (TC-PTP), at 30° C. Radiolabeled proteins and pNPP were prepared and assayed as previously reported (Taylor et al., 1997).
(§3) Due to the only recent emergence of PI(5)P as a known signaling molecule, few PTP's have been tested for activity against this substrate. To ensure that activity against PI(5)P is not a common feature of PTP's, membrane-bound di-C8 PI(5)P was assayed using a known tyrosine-specific PTP (TC-PTP) and a known dual-specific PTP (VHR) (Ishibashi et al., 1992; Zhao et al., 1992; Ruzzene et al., 1993; Zhou et al., 1994; Denu et al., 1995).

The next data set deals with VHR (Homo sapiens, UniProt P51452). Described as above. It counts as biochemical. Particulars: mole of phosphate released/min/mol of enzyme; triplicate; this study. The method, then:
as §1, §2, §3

The next data set concerns the target PTEN (Homo sapiens, UniProt P60484). The conditions noted are these: protein substrates; Ref. 43; cited from earlier work.
A further data set has as its target T3, MTM1 (Homo sapiens, UniProt Q13496).
T3 sequence (Q13496 1-603): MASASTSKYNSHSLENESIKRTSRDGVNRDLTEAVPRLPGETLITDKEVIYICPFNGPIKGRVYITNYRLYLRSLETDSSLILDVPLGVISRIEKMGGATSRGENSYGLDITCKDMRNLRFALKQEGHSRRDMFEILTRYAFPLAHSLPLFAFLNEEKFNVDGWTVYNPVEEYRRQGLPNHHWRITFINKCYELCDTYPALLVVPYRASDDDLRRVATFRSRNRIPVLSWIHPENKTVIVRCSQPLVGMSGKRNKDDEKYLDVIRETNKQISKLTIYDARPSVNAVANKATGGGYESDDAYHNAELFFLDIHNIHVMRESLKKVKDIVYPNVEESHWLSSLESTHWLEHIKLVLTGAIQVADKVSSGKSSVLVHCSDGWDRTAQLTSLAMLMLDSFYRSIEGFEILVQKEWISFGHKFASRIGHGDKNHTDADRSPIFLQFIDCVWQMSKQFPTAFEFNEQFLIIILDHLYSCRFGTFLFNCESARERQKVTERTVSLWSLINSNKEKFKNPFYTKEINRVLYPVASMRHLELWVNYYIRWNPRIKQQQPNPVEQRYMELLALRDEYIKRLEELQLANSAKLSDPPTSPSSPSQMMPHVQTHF
Particulars: Ref. 32; cited from earlier work.

Sequence of PTEN (P60484 whole entry, species assumed): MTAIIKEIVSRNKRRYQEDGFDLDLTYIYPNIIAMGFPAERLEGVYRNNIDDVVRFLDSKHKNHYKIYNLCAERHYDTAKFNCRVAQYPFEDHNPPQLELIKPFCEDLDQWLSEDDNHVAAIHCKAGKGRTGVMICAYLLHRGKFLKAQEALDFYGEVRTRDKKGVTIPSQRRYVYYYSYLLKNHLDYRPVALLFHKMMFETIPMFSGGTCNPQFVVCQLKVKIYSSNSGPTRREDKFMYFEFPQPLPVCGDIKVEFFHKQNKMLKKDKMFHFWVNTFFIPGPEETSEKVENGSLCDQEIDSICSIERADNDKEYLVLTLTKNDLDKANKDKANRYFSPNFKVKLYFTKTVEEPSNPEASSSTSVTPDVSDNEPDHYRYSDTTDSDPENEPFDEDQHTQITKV
Sequence of VHR (P51452 whole entry, species assumed): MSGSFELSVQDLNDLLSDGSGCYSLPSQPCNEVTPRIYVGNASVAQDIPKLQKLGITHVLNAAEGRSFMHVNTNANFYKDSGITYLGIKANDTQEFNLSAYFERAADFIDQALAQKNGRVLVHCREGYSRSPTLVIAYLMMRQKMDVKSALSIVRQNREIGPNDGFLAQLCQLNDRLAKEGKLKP

B1: myelin basic protein: radiolabeled myelin basic protein (protein, UniProt P02686 1-304, looked up)
Myelin basic protein: MGNHAGKRELNAEKASTNSETNRGESEKKRNLGELSRTTSEDNEVFGEADANQNNGTSSQDTAVTDSKRTADPKNAWQDAHPADPGSRPHLIRLFSRDAPGREDNTFKDRPSESDELQTIQEDSAATSESLDVMASQKRPSQRHGSKYLATASTMDHARHGFLPRHRDTGILDSIGRFFGGDRGAPKRGSGKDSHHPARTAHYGSLPQKSHGRTQDENPVVHFFKNIVTPRTPPPSQGKGRGLSLSRFSWGAEGQRPGFGYGGRASDYKSAHKGFKGVDAQGTLSKIFKLGGRDSRSGSPMARR
modifications: radiolabeled
Consider B1, for which, in the data set with PLIP (radiolabeled protein substrates), the “PLIP activity, fold lower than against PI(5)P” value is on record as “approximately 1000 fold”.

B2: MyBP Tyr(P): radiolabeled myelin basic protein substrate, tyrosine phosphorylated (protein, UniProt P02686 1-304, looked up)
Myelin basic protein: MGNHAGKRELNAEKASTNSETNRGESEKKRNLGELSRTTSEDNEVFGEADANQNNGTSSQDTAVTDSKRTADPKNAWQDAHPADPGSRPHLIRLFSRDAPGREDNTFKDRPSESDELQTIQEDSAATSESLDVMASQKRPSQRHGSKYLATASTMDHARHGFLPRHRDTGILDSIGRFFGGDRGAPKRGSGKDSHHPARTAHYGSLPQKSHGRTQDENPVVHFFKNIVTPRTPPPSQGKGRGLSLSRFSWGAEGQRPGFGYGGRASDYKSAHKGFKGVDAQGTLSKIFKLGGRDSRSGSPMARR
modifications: radiolabeled, tyrosine-phosphorylated
Consider B2, for which, in the data set with TC-PTP, the “Phosphatase activity, TC-PTP” value is 195^b mol/(min mol). For the same molecule, in the data set with VHR, the “Phosphatase activity, VHR” value was 0.5^b mol/(min mol). Moreover, the “Phosphatase activity, PLIP” value in the data set with PLIP is 0.1^b mol/(min mol). In addition, the “Phosphatase activity, PTEN” value with PTEN is on record as ~0.0^c mol/(min mol). In addition, the “Phosphatase activity, MTM1” value with MTM1 was ~0.0^d mol/(min mol).

B3: MyBP Ser(P)/Tyr(P): radiolabeled myelin basic protein substrate (protein, UniProt P02686 1-304, looked up)
Myelin basic protein: MGNHAGKRELNAEKASTNSETNRGESEKKRNLGELSRTTSEDNEVFGEADANQNNGTSSQDTAVTDSKRTADPKNAWQDAHPADPGSRPHLIRLFSRDAPGREDNTFKDRPSESDELQTIQEDSAATSESLDVMASQKRPSQRHGSKYLATASTMDHARHGFLPRHRDTGILDSIGRFFGGDRGAPKRGSGKDSHHPARTAHYGSLPQKSHGRTQDENPVVHFFKNIVTPRTPPPSQGKGRGLSLSRFSWGAEGQRPGFGYGGRASDYKSAHKGFKGVDAQGTLSKIFKLGGRDSRSGSPMARR
modifications: radiolabeled, Ser/Tyr-phosphorylated
notes: radiolabeled myelin basic protein substrate
For the molecule B3, in the data set with TC-PTP, the “Phosphatase activity, TC-PTP” value is reported as ~0.0^b mol/(min mol). In addition, the “Phosphatase activity, VHR” value with VHR is reported as ~0.0^b mol/(min mol). Also, the “Phosphatase activity, PLIP” value in the data set with PLIP is ~0.0^b mol/(min mol). For the same molecule, the “Phosphatase activity, PTEN” value in the data set with PTEN is ~0.0^c mol/(min mol). In the data set with MTM1, the “Phosphatase activity, MTM1” value is reported as ~0.0^d mol/(min mol).
